Data published in patent publication US10406218B2 (priority 2014, dated 2019).

System: T cells of LTBI and HC donors
Test: antigen reactivity in LTBI vs HC donors (LTBI-specific or crossreactive)
Type: cell-based, human
Conditions: response frequency and magnitude in LTBI vs HC donors, FIG. 10
Source text: The data herein implies that preexisting immunity and occasional boosting might be provided by exposure to NTMs, in a low MTB-complex exposure population such as the one from the general San Diego area. This might be viewed as desirable, or alternatively contributing an undesired confounding factor in evaluation of vaccination strategies. Regardless, whether or not preexisting, non-TB-complex related reactivity is present in the general population is an important issue has implication for the development of vaccination strategies. To further investigate this issue, epitope reactivity data (Lindestamm-Arlehamn et al, 2012) was mapped back to the specific antigens from which the epitopes were derived. Antigens recognized by 2 or more donors were further categorized as LTBI-specific or crossreactive according to the following criteria; antigens were categorized as LTBI-specific if there was a lack of reactivity in HC individuals, or if the ratio between response frequency and total SFC for LTBI/HC were >4. All other antigens were categorized as crossreactive.

Molecule	antigen reactivity category (LTBI-specific or crossreactive)
Rv1886c: MTB antigen currently included in TB vaccines in clinical development (protein, UniProt P9WQP1 41-325, looked up) Diacylglycerol …: FSRPGLPVEYLQVPSPSMGRDIKVQFQSGGNNSPAVYLLDGLRAQDDYNGWDINTPAFEWYYQSGLSIVMPVGGQSSFYSDWYSPACGKAGCQTYKWETFLTSELPQWLSANRAVKPTGSAAIGLSMAGSSAMILAAYHPQQFIYAGSLSALLDPSQGMGPSLIGLAMGDAGGYKAADMWGPSSDPAWERNDPTQQIPKLVANNTRLWVYCGNGTPNELGGANIPAEFLENFVRSSNLKFQDAYNAAGGHNAVFNFPPNGTHSWEYWGAQLNAMKGDLQSSLGAG	widely cross-reactive
Rv0288: MTB antigen currently included in TB vaccines in clinical development (protein, UniProt P9WNK3 1-96, looked up) ESAT-6-like protein EsxH: MSQIMYNYPAMLGHAGDMAGYAGTLQSLGAEIAVEQAALQSAWQGDTGITYQAWQAQWNQAMEDLVRAYHAMSSTHEANTMAMMARDTAEAAKWGG	widely cross-reactive
Rv1196: MTB antigen currently included in TB vaccines in clinical development (protein, UniProt L7N675 1-391, looked up) PPE family protein PPE18: MVDFGALPPEINSARMYAGPGSASLVAAAQMWDSVASDLFSAASAFQSVVWGLTVGSWIGSSAGLMVAAASPYVAWMSVTAGQAELTAAQVRVAAAAYETAYGLTVPPPVIAENRAELMILIATNLLGQNTPAIAVNEAEYGEMWAQDAAAMFGYAAATATATATLLPFEEAPEMTSAGGLLEQAAAVEEASDTAAANQLMNNVPQALQQLAQPTQGTTPSSKLGGLWKTVSPHRSPISNMVSMANNHMSMTNSGVSMTNTLSSMLKGFAPAAAAQAVQTAAQNGVRAMSSLGSSLGSSGLGGGVAANLGRAASVGSLSVPQAWAAANQAVTPAARALPLTSLTSAAERGPGQMLGGLPVGQMGARAGGGLSGVLRVPPRPYVMPHSPAAG	exclusively specific
